Assay results published in the supplement of paper PMC10201428.
± gives the standard deviation of the averaged measurements.

Key:
[1] = test system: VchCAST RNA-guided transposition machinery (E. coli BL21(DE3) host, lacZ target); assay: relative integration efficiency (T-LR orientation) vs wild-type transposon end (log2 (normalized fold change)); transposon end mutated: right end (5 bp flank + 75 bp right end); higher = more efficient transposition
Method in brief: (§1)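 Each barcoded pool, 1549 left-end or 1849 right-end transposon variants in a pUC57 mini-transposon donor, went into E. coli BL21(DE3) with a T7-driven effector plasmid (CRISPR array, tniQ-cas8-cas7-cas6, tnsA-tnsB-tnsC). Plates contained 0.1 mM IPTG and were held at 37°C for 18 h. Input plasmids and genomic integration junctions were PCR-amplified and read by Illumina sequencing, with two biological output replicates and four reference barcodes. Relative integration efficiency is the fold change of output over input barcode abundance, normalised to the reference barcodes and log-transformed.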

[2] = test system: VchCAST RNA-guided transposition machinery (E. coli BL21(DE3) host, lacZ target); assay: relative integration efficiency (T-RL orientation) vs wild-type transposon end (log2 (normalized fold change)); transposon end mutated: right end (5 bp flank + 75 bp right end); higher = more efficient transposition
Method in brief: as §1

Row | Sequence | relative integration efficiency (log2) [1] | relative integration efficiency (log2) [2]
1 | ACATTTGTTGATACAACCATAAAATGATAATTACACCCATAAATTGATATATATCACACCCATAAATTGATATTGCCTCTGATCATAGTCAGACCAACATTGCTACGACCCGTATTCGCACCGACAC | 4.91e-05 ± 0.14 | -0.313 ± 0.16
2 | ACATTTGTTGATACAACCATAAAATGATAATTACACCCATAAATTGATATCACACCCATAAATTGATATTGCCTCTGATCATAGTCAGACCAACATTGCTACGACCCGTATTCGCACCGACACTGAC | 2.45 ± 0.18 | -1.06 ± 0.31
3 | ACATTTGTTGATACAACCATAAAATGATAATTACACCCATAAATTGATATTGCTCACAACCATAAAATGATAATTACTCTGATCATAGTCAGACCAACATTGCTACGACCCGTATTCGCACCGACAC | 0.106 ± 0.059 | -0.532 ± 0.27
4 | ACATTTGTTGATACAACCATAAAATGATAATTACACCCATAAATTGATATTGCTCACAACCATAAAGTGATATTTACTCTGATCATAGTCAGACCAACATTGCTACGACCCGTATTCGCACCGACAC | 0.269 ± 0.25 | -0.424 ± 0.093
5 | ACATTTGTTGATACAACCATAAAATGATAATTACACCCATAAATTGATATTGCTCACAACCATAAGTTGATATTTTCTCTGATCATAGTCAGACCAACATTGCTACGACCCGTATTCGCACCGACAC | 0.538 ± 0.11 | -0.473 ± 0.17
6 | ACATTTGTTGATACAACCATAAAATGATAATTACACCCATAAATTGATATTGCTCACAACCATATATTGATATCTCCTCTGATCATAGTCAGACCAACATTGCTACGACCCGTATTCGCACCGACAC | 0.579 ± 0.21 | -0.74 ± 0.17
7 | ACATTTGTTGATACAACCATAAAATGATAATTACACCCATAAATTGATATTGCTCACACCCATAAATTGATAATTACTCTGATCATAGTCAGACCAACATTGCTACGACCCGTATTCGCACCGACAC | 0.634 ± 0.033 | -0.432 ± 0.2
8 | ACATTTGTTGATACAACCATAAAATGATAATTACACCCATAAATTGATATTGCTCACACCCATAAATTGATATTGCCTCTGATCATAGTCAGACCAACATTGCTACGACCCGTATTCGCACCGACAC | 0.786 ± 0.29 | -0.394 ± 0.045
9 | ACATTTGTTGATACAACCATAAAATGATAATTACACCCATAAATTGATATTGCTCAGTGGGTATTTAACTATAACGCTCTGATCATAGTCAGACCAACATTGCTACGACCCGTATTCGCACCGACAC | 2.58 ± 0.34 | -0.891 ± 0.23
10 | ACATTTGTTGATACAACCATAAAATGATAATTACACCCATAAATTGATCATTATCACCCCCAATTTAACTATAACGCTCTGATCATAGTCAGACCAACATTGCTACGACCCGTATTCGCACCGACAC | 1.9 ± 0.065 | -1.35 ± 0.22
11 | ACATTTGTTGATACAACCATAAAATGATAATTACACCCATAAATTGATCCGGATCACACCCATAAATTGATATTGCCTCTGATCATAGTCAGACCAACATTGCTACGACCCGTATTCGCACCGACAC | -0.388 ± 0.14 | -0.929 ± 0.16
12 | ACATTTGTTGATACAACCATAAAATGATAATTACACCCATAAATTGATCCGGCGACACAAACGCCCGGTCGCGGTAAGAGGATCATAGTCAGACCAACATTGCTACGACCCGTATTCGCACCGACAC | 2.09 ± 0.1 | -0.942 ± 0.11
13 | ACATTTGTTGATACAACCATAAAATGATAATTACACCCATAAATTGATCCTTATCACACCCATAAATTGATATTGCCTCTGATCATAGTCAGACCAACATTGCTACGACCCGTATTCGCACCGACAC | -0.418 ± 0.47 | -0.973 ± 0.3
14 | ACATTTGTTGATACAACCATAAAATGATAATTACACCCATAAATTGATTCACACCCATAAATTGATATTGCCTCTGATCATAGTCAGACCAACATTGCTACGACCCGTATTCGCACCGACACTGACT | 2.09 ± 0.12 | -1.49 ± 0.24
15 | ACATTTGTTGATACAACCATAAAATGATAATTACACCCATAAATTGATTTAAATCACACCCATAAATTGATATTGCCTCTGATCATAGTCAGACCAACATTGCTACGACCCGTATTCGCACCGACAC | -0.261 ± 0.15 | -0.801 ± 0.11
16 | ACATTTGTTGATACAACCATAAAATGATAATTACACCCATAAATTGATTTTTATCACACCCATAAATTGATATTGCCTCTGATCATAGTCAGACCAACATTGCTACGACCCGTATTCGCACCGACAC | 0.0005 ± 0.35 | -0.629 ± 0.28
17 | ACATTTGTTGATACAACCATAAAATGATAATTACACCCATAAATTGCGAATTATCACACCCATAAATTGATATTGCCTCTGATCATAGTCAGACCAACATTGCTACGACCCGTATTCGCACCGACAC | -0.682 ± 0.11 | -0.3539 ± 0.00067
18 | ACATTTGTTGATACAACCATAAAATGATAATTACACCCATAAATTGCGCCGGCGACACAAACGCCCGGTCGCGGTAAGAGGATCATAGTCAGACCAACATTGCTACGACCCGTATTCGCACCGACAC | 1.62 ± 0.053 | -1.38 ± 0.23
19 | ACATTTGTTGATACAACCATAAAATGATAATTACACCCATAAATTGCGCCTTATCACACCCATAAATTGATATTGCCTCTGATCATAGTCAGACCAACATTGCTACGACCCGTATTCGCACCGACAC | -0.939 ± 0.25 | -1.39 ± 0.2
20 | ACATTTGTTGATACAACCATAAAATGATAATTACACCCATAAATTGTAAATTATCACACCCATAAATTGATATTGCCTCTGATCATAGTCAGACCAACATTGCTACGACCCGTATTCGCACCGACAC | -0.553 ± 0.24 | -0.602 ± 0.1
21 | ACATTTGTTGATACAACCATAAAATGATAATTACACCCATAAATTGTATTTTATCACACCCATAAATTGATATTGCCTCTGATCATAGTCAGACCAACATTGCTACGACCCGTATTCGCACCGACAC | -0.327 ± 0.39 | -0.924 ± 0.063
22 | ACATTTGTTGATACAACCATAAAATGATAATTACACCCATAAATTTATTATTATCACACCCAATTTAACTATAACGCTCTGATCATAGTCAGACCAACATTGCTACGACCCGTATTCGCACCGACAC | 1.56 ± 0.26 | -2.3 ± 0.59
23 | ACATTTGTTGATACAACCATAAAATGATAATTACACCCATAAATTTCGCATTATCACACCCATAAATTGATATTGCCTCTGATCATAGTCAGACCAACATTGCTACGACCCGTATTCGCACCGACAC | -1.39 ± 0.6 | -1.91 ± 0.14
24 | ACATTTGTTGATACAACCATAAAATGATAATTACACCCATAAATTTCGCCGGCGACACAAACGCCCGGTCGCGGTAAGAGGATCATAGTCAGACCAACATTGCTACGACCCGTATTCGCACCGACAC | 0.788 ± 0.1 | -2.05 ± 0.15
25 | ACATTTGTTGATACAACCATAAAATGATAATTACACCCATAAATTTCTAATTATCACACCCATAAATTGATATTGCCTCTGATCATAGTCAGACCAACATTGCTACGACCCGTATTCGCACCGACAC | -0.772 ± 0.23 | -0.945 ± 0.17
26 | ACATTTGTTGATACAACCATAAAATGATAATTACACCCATAACGGTATAATTATCACACCCATAAATTGATATTGCCTCTGATCATAGTCAGACCAACATTGCTACGACCCGTATTCGCACCGACAC | -1.21 ± 0.31 | -1.01 ± 0.024
27 | ACATTTGTTGATACAACCATAAAATGATAATTACACCCATAACGGTCGCCGGCGACACAAACGCCCGGTCGCGGTAAGAGGATCATAGTCAGACCAACATTGCTACGACCCGTATTCGCACCGACAC | 0.674 ± 0.11 | -2.35 ± 0.24
